Assay results taken from the supplement of paper PMC9170038.

What was measured:
[1] = system: K4 kissing-loop RNA reporter; test: apparent KD of K4 kissing-loop reporter; higher = weaker reporter binding; conditions: Eterna round: R107;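 also: bound reporter read as fluorescence of individual clusters on recovered sequencing chips by microscopy, with normalized cluster intensities fitted with a binding model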
Protocol: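 RNA-MaP round R107: designed RNA switches with theophylline, tryptophan, arginine or FMN aptamers are transcribed on-chip within common flanks. They are titrated with a labelled K4 kissing-loop RNA reporter in RNA-MaP buffer (100 mM Tris pH 7.5, 80 mM KCl, 4 mM MgCl2), without ligand or with the indicated ligand. Median apparent KD per design.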

[2] = system: MS2 coat protein; test: apparent KD of MS2 coat protein; designed switch direction (-1 OFF switch, 1 ON switch): -1; higher = weaker reporter binding
Summary of the method: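 The apparent KD reported per design is the median over clusters of curve fits to normalised cluster fluorescence. The RNA switches were transcribed on Illumina chips by stalled E. coli RNA polymerase. SNAP-549-labelled MS2 coat protein was titrated from 0.7 or 1.5 nM, doubling up to 3 µM, in Tris-HCl pH 7.5 buffer containing KCl, MgCl2, BSA, DTT, tRNA and Tween-20, with no input, 200 uM small-molecule ligand, or an oligonucleotide input.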

[3] = input ligand: theophylline 20 uM
[4] = input ligand: tryptophan 2.4 mM
[5] = Eterna round: R95, input ligand: microRNA oligo, concentration not stated
[6] = input ligand: microRNA oligo, concentration not stated

Sequence	apparent KD of K4 kissing-loop reporter ([1]; input ligand: FMN 200 uM) [nM]	apparent KD of K4 kissing-loop reporter ([1]; input ligand: arginine 13.2 mM) [nM]	apparent KD of K4 kissing-loop reporter ([1]; input ligand: none) [nM]	apparent KD of K4 kissing-loop reporter [1, 3] [nM]	apparent KD of K4 kissing-loop reporter [1, 4] [nM]	apparent KD of MS2 coat protein [2, 5] [nM]	apparent KD of MS2 coat protein ([2]; input ligand: FMN 200 uM) [nM]	apparent KD of MS2 coat protein ([2]; input ligand: none) [nM]	further results
AAAACUAUCAGAAGGAGCGUGGAAUAUUCAUCUGUAUUUAAUACGAGUGAUGUUCGUAAUUCACAGGUAGGUCGCUGAUCAAUAA [whbob_Ex_Arginine_B_2th154]	269	253	306	305	254				
AAAAUAAGCCAGUGAUGUUGGUAUACAGAUACCAGCGACGAAAGUCGCCCUUGGCAGCUGUGGACGUACAAAAUAAGUACGUCCU	364	278	417	780	364				
AAAAUAAGCCAGUGAUGUUGGUAUCCAGAUACCAGCGACGAAAGUCGCCCUUGGCAGCUGUGGACGUACAAAAUAAGUACGUCCU	194	107	143	266	126				
AAACAUCACUGGGAGUGAUGUUCUCAGUGACGAGGACCGGUACGGCCGCCACUCGCGAGAGAUAUAGAUAAGUAAUGACAUCAUU [Excl Tryptophan A V4]	347	298	354	390	433				
AAACAUCACUGGGAGUGAUGUUCUCAGUGACGAGGACCGGUACGGCCGCCACUCGCGAGAGAUAUAGUUAAGUAAUGACUGCAUU [Excl Tryptophan A V7]	324	251	294	333	324				
AAACAUCACUGGGAGUGAUGUUCUCAGUGACGAGGACCGGUACGGCCGCCACUCGCGAGAGAUCUAGUCUAGUCUUGACUGCAUU [Excl Tryptophan A V13]	282	284	292	359	333				
AAACAUUGGUCUGAUACCAGCUGAUCGGAAACGAUCUUGCUGGAGUGAUGUUCCAAGUAAAGCCCUUGGCAGCAGACCGAUGAAA [MAT - Same State Theophlline B - Mod of Eli - D19]	108	53.3	72.6	107	81.8				
AAACGCUGGAUGAAUAACAUCUAGCGAAUUCGAGGACCGGUACGGCCGCCACUCGAGCUAACUGCGAGUGAUGUUCGAUAAUAAA [Mat - Mod of OpenEnded 3 - D1]	306	451	441	524	80.9				
AAACGUCGGAAGUGAUGUUGAUGACGUAGUAAGGAUAUUGGACGCGCAAGAAGGUACUGGCAAACUAAGGACAUCCUGGAUAUUC [theeternabot_exclusion_KL_FMN_A_47]	330	251	232	243	254				
UUUGUCUGUGUGAGGAUAUACUUGUUUGGGUUUUUGUAGAAGGCACAUGAGGAUCACCCAUGUAUUUUGUCGUG [JR_BME4_Sub018] (puzzle: Brourd's mod of Exclusion 4)						36.7			
UUUGUUUAUGUAGGAUAUGCCUGGCGUGCCUUCGCAGAAGGACAUGAGGAUCACCCAUGUAUUGCGGUCUGCGUUCAGAUCGCC [salish99_ExNG1_r4_028] (Eterna round: R96, puzzle: Exclusion NG 1)							22.6	21	apparent KD of MS2 coat protein [2, 6]: 16.1 nM
UUUGUUUAUGUAGGAUAUGCCUGGCGUGCCUUUGCAGAAGGACAUGAGGAUCACCCAUGUAACAUGAGGCUCACCCAUGUCGCA [salish99_ExNG1_r04_110] (Eterna round: R96, puzzle: Exclusion NG 1)							682	645	apparent KD of MS2 coat protein [2, 6]: 453 nM
UUUGUUUGGUAGGAUAUCAACUAAGAGAGUGGCUGAGAAGGACCAACAUGAGGAUCACCCAUGUCGGUUCCGUU [EX6 C.15] (Eterna round: R97, puzzle: Exclusion 6)							16.2	14.8	
UUUUAACAUGAGGAUCACCCAUGUGAGGAUAUCGAAAUUUAUAUUAAUAUUAUUAUUUCGAGAAGGCACAUUUU [JMF 41] (puzzle: Exclusion 1)						155			
UUUUAACAUGAGGAUCACCCAUGUGAGGAUAUCGAAAUUUAUAUUAAUAUUUUUAAUUCGAGAAGGCACAUUUU [JMF 69] (puzzle: Exclusion 1)						136			
UUUUAACAUGAGGAUCACCCAUGUGAGGAUAUCGAAAUUUAUAUUUAUAUUAAUAAAACGAGAAGGCACAUUUU [JMF 75] (puzzle: Exclusion 1)						70.4			apparent KD of MS2 coat protein ([2]; Eterna round: R95, input ligand: FMN 200 uM): 119 nM; apparent KD of MS2 coat protein ([2]; Eterna round: R95, input ligand: none): 87.4 nM
UUUUAACAUGAGGAUCACCCAUGUGAGGAUAUCGAAAUUUAUAUUUAUAUUAAUAUUUCGAGAAGGCACAUUUU [JMF 81] (puzzle: Exclusion 1)						176			
UUUUAACAUGAGGAUCACCCAUGUGAGGAUAUCGAAAUUUAUAUUUAUAUUUAUAUUACGAGAAGGCACAUUUU [JMF 98] (puzzle: Exclusion 1)						84.3			
UUUUACAUAGGAUAUAGUUGCUUUUACAUGAGGAUCACCCAUGUCUCUCCUCUCUCUCUUCUAGAAGGAUGUUUCU [JR_E5_Sub011] (Eterna round: R96, puzzle: Exclusion 5)							55.3	47	apparent KD of MS2 coat protein [2, 6]: 35.7 nM
UUUUACAUAGGAUAUAGUUGCUUUUACAUGAGGAUCACCCAUGUCUCUCCUCUCUCUCUUCUAGAAGGAUGUUUCU [JR_E5_Sub011] (puzzle: Exclusion 5)						53.3			
UUUUAGGGAGGAUAUACAUUUUUUUUAUUAUCCUCAUUAAUACAUGAGGAUCACCCAUGUAGAAGGCCCAUUUU [Mat - Exclusion 2 - Mod of Hog - D84] (puzzle: Exclusion 2)						47.9			
UUUUAGUCAGGAUAUACAUUUUUUUAAUUAUUUAUAAUAUUACAUGAGGAUCACCCAUGUAGAAGGGACAUUUU [My Design] (puzzle: Exclusion 2)						28.6			
UUUUGCUCAGGAUAUACAUGAGGAUCACCCAUGUAUAUUGAAAAUAAUACAUGGGAAUGUAGAAGGGAGCUCAU [Omei Ex3 Pseudoloop 20] (Eterna round: R97, puzzle: Exclusion 3)							127	168	
UUUUGGCAUGUAGGAUAUGGGUCCGAUUGGGAUUUAGAAGGACAUGAGGAUCACCCAUGUGCCCUUACUUGGUGUUUUUUUUUU [EXclNG1-LROPPY20] (Eterna round: R96, puzzle: Exclusion NG 1)							126	91.6	apparent KD of MS2 coat protein [2, 6]: 44.6 nM
UUUUUACAUGAGGAUCACCCAUGUGAGGAUAUGGUUUCGCUGGCCGUAGCCAGUGGAACCAGAAGGCGCAUGAU [Mat - Exclusion 1 - JL Mod - D8] (Eterna round: R97, puzzle: Exclusion 1)							374	84.7	
UUUUUACGAGGAUAUCGAUUGUGGUACAUGAGGAUCACCCAUGUAUGUGAUAUUGUAUUUCGAGAAGGCGUUCAGU [JR_E5_Sub060] (puzzle: Exclusion 5)						21.5			
UUUUUCUCAGGAUAUACAUGAGGAUCACCCAUGUAUAUUGAUGAUAAUACAUGGGAAUGUAGAAGGGAGCUCAU [Omei Ex3 Pseudoloop 16] (Eterna round: R97, puzzle: Exclusion 3)							87.9	95.7	
UUUUUUGUUGUGAGGAUAUCGUUGUUGUUGUGGAUCGAGAAGGCACAUGAGGAUCACCCAUGUUUGUUGUGGUU [JR_BMOE4_Sub086] (Eterna round: R96, puzzle: Brourd's mod of Exclusion 4)							272	109	apparent KD of MS2 coat protein [2, 6]: 81.2 nM
UUUUUUGUUGUGAGGAUAUCGUUGUUGUUGUGGAUCGAGAAGGCACAUGAGGAUCACCCAUGUUUGUUGUGGUU [JR_BMOE4_Sub086] (puzzle: Brourd's mod of Exclusion 4)						83.7			
